Measurements published in US20210386829A1, “COMPOSITIONS AND METHODS FOR MODULATING CGRP SIGNALING TO REGULATE INNATE LYMPHOID CELL INFLAMMATORY RESPONSES” (The Broad Institute, Inc., priority 2018, published 2021).

Tested on: lung-resident ILCs
Assay: SMART-Seq2 plate-based scRNA-seq of lung-resident ILCs from PBS-, IL-25- or IL-33-treated mice, differential gene expression by logistic regression (Tables 3, 4)
Type: in vivo, mouse
Description: Mice and in vivo ILC activation. C57B1/6J mice were purchased from the Jackson Laboratory. Nmur1-LacZ reporter mice with a LacZ cassette knocked into the Nmur1 locus were rederived from Nmur1^tm1.1(KOMP)Vlcg sperm obtained from the trans-NIH Knock-Out Mouse Project (KOMP) Repository. NMU-deficient mice (NMU-KO) were rederived from B6.129S2-Nmu<tm1Mko> embryos from the RIKEN BioResource Center. For experiments with Nmur1-LacZ (Nmur1-KO) and NMU-KO mice, littermates that were either homozygous or heterozygous for the wild type allele were used as controls. Mice were housed under specific-pathogen-free conditions. For experiments, mice were matched for sex and age, and most mice were 6-10 weeks old. Where indicated, mice were anesthetized with Isoflurane and treated intranasally with the indicated stimuli (500 ng IL-25, 500 ng IL-33, or 20 μg Neuromedin U) daily for three consecutive days. The total administered volume was 20 μl for all conditions. Mice were randomly assigned to treatment groups after matching for sex and age. […] Mice were treated intranasally with 10 μg HDM on day 0, 7, 8, and 9, prior to sacrifice on day 10. All experiments were conducted in accordance with animal protocols approved by the Harvard Medical Area Standing Committee on Animals or BWH IACUC.
Fluorescence-activated cell sorting of innate lymphoid cells. After dissociation, single cell suspensions were incubated with CD90.2 MicroBeads (Miltenyi Biotec) on ice and enriched for CD90.2^+ cells by magnetic separation using LS columns according to the manufacturer's protocol. CD90.2^+ lung cells were then stained on ice with antibodies for sorting. ILCs were defined as 7AAD^− CD45^+ CD90.2^+ CD127^+ Lineage (CD11b, CD11c, CD19, NK1.1, […], CD4, CD8a, TCRβ, TCRγδ)^− cells and sorted on a BD FACS Aria (BD Biosciences).
For full-length scRNA-Seq, single ILCs were sorted into 96-well plates containing 5 ul TCL Buffer (QIAGEN) with 1% 2-Mercaptoethanol, centrifuged and frozen at −80° C. SMART-Seq2 protocol was carried out as previously described^23 with minor modifications in the reverse transcription step. cDNA was amplified with 22 cycles and fragmented with one-eighth of the standard Illumina NexteraXT reaction volume. Single-cell libraries were pooled and paired-end sequenced (38 bp×2) with a 75 cycle Nextseq 500 high output V2 kit.
Analysis of SMART-Seq2 plate-based scRNA-Seq data. Reads were aligned to mm10 using Kallisto (Bray, N. L., Pimentel, H., Meisted, P. & Pachter, L. Near-optimal probabilistic RNA-seq quantification. Nat Biotechnol 134, 525-527, doi:10.1038/nbt.3519 (2016)) quant, version 0.42.3. The R package tximport (Soneson, C., Love, M. I. & Robinson, M. D. Differential analyses for RNA-seq: transcript-level estimates improve gene-level inferences [version 2; referees: 2 approved]. F1000Research 4, doi:10.12688/f1000research.7563.2 (2016)), version 1.2.0, was used to convert the output to gene counts and traditional TPM values. Because of the variability in read counts per cell across plates, even from the same condition, as well as in the number of genes per cell across conditions, QC was performed for each of eight plates individually in order to remove cells that were outliers with respect to either measure. Out of 752 cells, 606 cells met QC criteria (234 from control, 152 from IL-25 treated mice, and 220 from IL-33 treated mice), and the number of genes per cell in this set ranged from 1,625 to 6,375. Genes that were not expressed with log(TPM)>2.5 in at least two cells were removed from further analysis. Subsequent analysis proceeded analogously to the droplet-based RNA-seq analysis, with parameter settings that reflected both the wider dynamic range of expression and much smaller cell numbers. The minimum ILC signature score required in ILC type assignment was 0.3. Variable genes were identified by running MeanVarPlot with x.low.cutoff=0.1, y.cutoff=1.5, and x.high.cutoff=10, resulting in a set of 519 genes. […]

B1: IL25 (protein, UniProt Q8VHH8 17-169, looked up)
Interleukin-25: VSLRIQEGCSHLPSCCPSKEQEPPEEWLKWSSASVSPPEPLSHTHHAESCRASKDGPLNSRAISPWSYELDRDLNRVPQDLYHARCLCPHCVSLQTGSHMDPLGNSVPLYHNQTVFYRRPCHGEEGTHRRYCLERRLYRVSLACVCVRPRVMA
Question: What does the source list for B1?
Answer: Med16 expression coeff: −0.61; Mfsd1 expression coeff: 1.25; Mgat1 expression coeff: 1.24; Mgat5 expression coeff: 1.02; Mier3 expression coeff: −0.901; Mkl2 expression coeff: −1.12; Mlec expression coeff: 0.715; Morc3 expression coeff: 0.662; Mov10 expression coeff: 1.08; Mplkip expression coeff: −0.607; Mrp63 expression coeff: 1.09; Mrpl40 expression coeff: −0.837; Mrpl52 expression coeff: 0.158; Mrpl53 expression coeff: −1.87; Mrps18a expression coeff: −1.24; Ms4a4b expression coeff: 3.49; Ms4a6b expression coeff: 3.22; Mtfmt expression coeff: −2.15; Mxd1 expression coeff: 0.448; Mybbp1a expression coeff: −0.514; Myg1 expression coeff: −1.33; Myo1f expression coeff: 0.897; Myo1g expression coeff: 0.257; Naa60 expression coeff: 0.241; Nbn expression coeff: −0.499; Ndufaf3 expression coeff: 1.45; Neu3 expression coeff: −2.64; Nfil3 expression coeff: 2.04; Nipal1 expression coeff: 1.61; Nlrc5 expression coeff: 0.93; Nol6 expression coeff: −1.65; Nol9 expression coeff: −0.775; Nop56 expression coeff: −0.619; Npc2 expression coeff: 0.143; Npnt expression coeff: 0.056; Nrip1 expression coeff: 0.668; Nsmaf expression coeff: 1.41; Oas1a expression coeff: 0.0294; Ogfr expression coeff: 0.578; Omd expression coeff: −1.12; Parp3 expression coeff: 0.335; Parp10 expression coeff: 0.371; Parp14 expression coeff: 0.934; Paxip1 expression coeff: −1.15; Pdcd1 expression coeff: 1.04; Pde4b expression coeff: 0.735; Per1 expression coeff: −0.785; Pfas expression coeff: −0.546; Phc3 expression coeff: 0.476; Phf11a expression coeff: 1.52; Phf11b expression coeff: 1.38; Picalm expression coeff: 1.79; Pigv expression coeff: −2.73; Pin4 expression coeff: 0.928; Plac8 expression coeff: 0.268; Plekha5 expression coeff: −1.01; Plxdc2 expression coeff: −0.906; Pml expression coeff: 1.04; Ppif expression coeff: −1.14; Ppp1r15a expression coeff: 0.186; Pydc4 expression coeff: 1.52; Pyhin1 expression coeff: 0.623; Rab7l1 expression coeff: 1.18; Rab8b expression coeff: 1.5; Rab33b expression coeff: −1.3; Rdh1 expression coeff: −2.49; Rdh13 expression coeff: −1.37; Rilpl2 expression coeff: 1.4; Rnf125 expression coeff: 1.65; Rtp4 expression coeff: 0.866; Samd9l expression coeff: 0.773; Sbno2 expression coeff: 1.09; Sdc4 expression coeff: 0.206; Sdccag3 expression coeff: 0.312; Sema4a expression coeff: −0.348; Sema4d expression coeff: 0.548; Sesn3 expression coeff: 0.328; Shank2 expression coeff: −3.19; Sipa1 expression coeff: 1.56; Slc25a24 expression coeff: 0.607; Slc44a2 expression coeff: 0.294; Slfn2 expression coeff: 0.267; Smn1 expression coeff: −1.53; Sntb1 expression coeff: 1.29; Soat1 expression coeff: 0.339; Socs1 expression coeff: −1.36; Socs2 expression coeff: −0.923; Socs3 expression coeff: 1.02; Sp100 expression coeff: 0.451; Sptssa expression coeff: −0.974; Ssr3 expression coeff: 0.609; St3gal6 expression coeff: −0.764; Stab1 expression coeff: 1.24; Stat1 expression coeff: 1.88; Syt11 expression coeff: 0.291; Taf1d expression coeff: 1.28; Tango6 expression coeff: −1.32; Tap1 expression coeff: 0.561; Tap2 expression coeff: 0.406; Tet3 expression coeff: 1.62; Tmem33 expression coeff: 1.18; Tmem176a expression coeff: −0.146; Tmem176b expression coeff: −0.422; Tmem209 expression coeff: −0.847; Tmem229b expression coeff: 0.199; Tnfrsf18 expression coeff: −1.25; Tnfsf10 expression coeff: −1.18; Tpm4 expression coeff: 0.311; Tradd expression coeff: 0.964; Trafd1 expression coeff: 0.993; Trim12c expression coeff: 0.974; Trim30a expression coeff: 1.17; Trim34a expression coeff: 0.632; Trim30d expression coeff: 0.527; Trip13 expression coeff: −1.91; Trp53inp1 expression coeff: 1.28; Ttc19 expression coeff: 0.891; Ttc39b expression coeff: 0.546; Ube2h expression coeff: 0.767; Usp18 expression coeff: 1.1; Usp36 expression coeff: −0.645; Vdr expression coeff: −0.748; Vmp1 expression coeff: 1.49; Xrcc3 expression coeff: −1.4; Zbp1 expression coeff: 0.971; Zc3h12a expression coeff: −1.14; Zcchc10 expression coeff: −1.82; Zfand6 expression coeff: 0.659; Zfc3h1 expression coeff: 0.466; Zfp110 expression coeff: −0.396; Zfp825 expression coeff: −1.4
